Measurements published in US20070071745A1 (Hoffmann-La Roche, published 2007).
One block for each binder: values may come before it.

How the values were obtained:
human CD20 [1] = target: T1, human CD20 (human, UniProt P11836 1-297); assay: flow cytometry on Raji B-cell lymphoma cells (FIG. 11)
T1 construct: whole, on cells; also called human CD20 antigen; target antigen (CD20)
T1 sequence (looked up): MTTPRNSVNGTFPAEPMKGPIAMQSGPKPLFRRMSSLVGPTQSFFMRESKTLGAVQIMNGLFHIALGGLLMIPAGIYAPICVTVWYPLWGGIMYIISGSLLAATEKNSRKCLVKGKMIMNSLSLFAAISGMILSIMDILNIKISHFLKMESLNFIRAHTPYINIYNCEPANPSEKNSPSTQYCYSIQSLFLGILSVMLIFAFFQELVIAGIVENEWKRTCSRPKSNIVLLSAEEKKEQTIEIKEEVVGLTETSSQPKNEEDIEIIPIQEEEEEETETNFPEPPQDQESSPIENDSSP
Procedure: (§1) 200,000 cells in 180 μl FACS buffer (PBS containing 2% FCS and 5 mM EDTA) were transferred to 5 ml polystyrene tubes. Next, 20 μl of 10-fold concentrated anti-CD20 antibody samples (1-5000 ng/ml final concentration) or PBS only were added, and the tubes were incubated at 4° C. for 30 min. Subsequently, samples were washed twice with FACS buffer and pelleted at 300×g for 3 min. Supernatant was aspirated off and cells were taken up in 100 μl FACS buffer. Next, 1 μl anti-Fc-specific F(ab′)2-FITC fragments (Jackson Immuno Research Laboratories, USA) was added and the tubes were incubated at 4° C. for 30 min. Samples were washed twice with FACS buffer and taken up in 500 μl of FACS buffer containing 0.5 μg/ml PI for analysis by Flow Cytometry. Binding was determined by plotting the geometric mean fluorescence against the antibody concentrations.

human CD20 [2] = target: T1, human CD20; assay: flow cytometry on Raji B-cell lymphoma cells (FIG. 2)
Procedure: as §1

human CD20 [3] = target: T1, human CD20; assay: flow cytometry on Raji B-cell lymphoma cells (FIGS. 2, 9 to 13)
Procedure: as §1

human CD20 [4] = target: T1, human CD20; assay: flow cytometry on Raji B-cell lymphoma cells (FIG. 22)
Procedure: as §1

human CD20 [5] = target: T1, human CD20; assay: flow cytometry on Raji B-cell lymphoma cells (methods described above)
Procedure: as §1

human CD20 [6] = target: T1, human CD20; assay: flow cytometry on Raji B-cell lymphoma cells (FIGS. 2, 9 to 13); the same paragraph adds that the binding of B-HL11 to B-HL17 does not differ drastically in EC50 and stoichiometry
Procedure: as §1

B1: B-HH1 paired with the BKV1 humanized B-ly1 light chain (antibody, human IgG1, V domains shown)
VH: QVQLVQSGAEVKKPGSSVKVSCKASGYTFSYSWMSWVRQAPGQGLEWMGRIFPGDGDTDYAQKFQGRVTITADKSTSTAYMELSSLRSEDTAVYYCARNVFDGYWLVYWGQGTLVTVSS
VL: DIVMTQTPLSLPVTPGEPASISCRSSKSLLHSNGITYLYWYLQKPGQSPQLLIYQMSNLVSGVPDRFSGSGSGTDFTLKISRVEAEDVGVYYCAQNLELPYTFGGGTKVEIKR
notes: also called BHH1-BKV1
binding result (human CD20 [1]): binds

B2: B-HL12 (G9A, V48M) paired with the BKV1 light chain (antibody, human IgG1, V domains shown)
VH: EVQLVESGAGLVKPGGSLRLSCAASGFTFSYSWMNWVRQAPGKGLEWMGRIFPGDGDTDYNGKFKGRVTITADKSTSTAYMELSSLRSEDTAVYYCARNVFDGYWLVYWGQGTLVTVSS
VL: DIVMTQTPLSLPVTPGEPASISCRSSKSLLHSNGITYLYWYLQKPGQSPQLLIYQMSNLVSGVPDRFSGSGSGTDFTLKISRVEAEDVGVYYCAQNLELPYTFGGGTKVEIKR
binding result (human CD20 [2]): binds

B4: B-HH8 with the BKV1 light chain (antibody, human IgG1, V domains shown)
VH: QVQLVQSGAEVKKPGASVKVSCKASGYTFTYSWMNWVRQAPGQGLEWMGRIFPGDGDTDYNGKFKGRVTITADKSTSTAYMELSSLRSEDTAVYYCARNVFDGYWLVYWGQGTLVTVSS
VL: DIVMTQTPLSLPVTPGEPASISCRSSKSLLHSNGITYLYWYLQKPGQSPQLLIYQMSNLVSGVPDRFSGSGSGTDFTLKISRVEAEDVGVYYCAQNLELPYTFGGGTKVEIKR
binding result (human CD20 [4]): binds

B6: B-HH9 with the BKV1 light chain (antibody, human IgG1, V domains shown)
VH: QVQLVQSGAEVKKPGASVKVSCKASGYTFSYSWMNWVRQAPGQGLEWMGRIFPGDGDTDYNGKFKGRVTITADKSTSTAYMELSSLRSEDTAVYYCARNVFDGYWLVYWGQGTLVTVSS
VL: DIVMTQTPLSLPVTPGEPASISCRSSKSLLHSNGITYLYWYLQKPGQSPQLLIYQMSNLVSGVPDRFSGSGSGTDFTLKISRVEAEDVGVYYCAQNLELPYTFGGGTKVEIKR
binding result (human CD20 [4]): binds

B12: BHH2-A (V11L) paired with a BKV1 light chain (antibody, human IgG1, V domains shown)
VH: QVQLVQSGAELKKPGSSVKVSCKASGYAFSYSWMNWVRQAPGQGLEWMGRIFPGDGDTDYNGKFKGRVTITADKSTSTAYMELSSLRSEDTAVYYCARNVFDGYWLVYWGQGTLVTVSS
VL: DIVMTQTPLSLPVTPGEPASISCRSSKSLLHSNGITYLYWYLQKPGQSPQLLIYQMSNLVSGVPDRFSGSGSGTDFTLKISRVEAEDVGVYYCAQNLELPYTFGGGTKVEIKR
binding result (human CD20 [5]): binds

B15: BHL15-BKV1 (antibody, human IgG1, V domains shown)
VH: EVQLVESGGGLVKPGSSLRLSCAASGFTFSYSWMNWVRQAPGKGLEWMGRIFPGDGDTDYNGKFKGRVTITADKSTSTAYMELSSLRSEDTAVYYCARNVFDGYWLVYWGQGTLVTVSS
VL: DIVMTQTPLSLPVTPGEPASISCRSSKSLLHSNGITYLYWYLQKPGQSPQLLIYQMSNLVSGVPDRFSGSGSGTDFTLKISRVEAEDVGVYYCAQNLELPYTFGGGTKVEIKR
notes: also called BHL15-BKV1 W1; B-HL15 (G16S, V48M)
binding result (human CD20 [2]): binds

More lines, now with the values ahead:

binding result (human CD20 [3]): binds
B3: BHH2-BKV1 humanized IgG1 B-ly1 anti-human CD20 antibody (antibody, V domains shown)
VH: QVQLVQSGAEVKKPGSSVKVSCKASGYAFSYSWMNWVRQAPGQGLEWMGRIFPGDGDTDYNGKFKGRVTITADKSTSTAYMELSSLRSEDTAVYYCARNVFDGYWLVYWGQGTLVTVSS
VL: DIVMTQTPLSLPVTPGEPASISCRSSKSLLHSNGITYLYWYLQKPGQSPQLLIYQMSNLVSGVPDRFSGSGSGTDFTLKISRVEAEDVGVYYCAQNLELPYTFGGGTKVEIKR
notes: Non-glycoengineered form; also called BHH2-BKV1-wt; humanized B-ly1

binding result (human CD20 [1]): binds
B5: B-HH3 paired with the BKV1 humanized B-ly1 light chain (antibody, human IgG1, V domains shown)
VH: QVQLVQSGAEVKKPGSSVKVSCKASGYAFSYSWMNWVRQAPGQGLEWMGRIFPGDGDTDYNGKFKGRVTITADKSTSTAYMELSSLRSEDTAVYLCARNVFDGYWLVYWGQGTLVTVSS
VL: DIVMTQTPLSLPVTPGEPASISCRSSKSLLHSNGITYLYWYLQKPGQSPQLLIYQMSNLVSGVPDRFSGSGSGTDFTLKISRVEAEDVGVYYCAQNLELPYTFGGGTKVEIKR
notes: also called BHH3-BKV1

binding result (human CD20 [2]): binds
B7: BHL13-BKV1 (antibody, human IgG1, V domains shown)
VH: EVQLVESGGGVVKPGGSLRLSCAASGFTFSYSWMNWVRQAPGKGLEWMGRIFPGDGDTDYNGKFKGRVTITADKSTSTAYMELSSLRSEDTAVYYCARNVFDGYWLVYWGQGTLVTVSS
VL: DIVMTQTPLSLPVTPGEPASISCRSSKSLLHSNGITYLYWYLQKPGQSPQLLIYQMSNLVSGVPDRFSGSGSGTDFTLKISRVEAEDVGVYYCAQNLELPYTFGGGTKVEIKR
notes: also called B-HL13 (L11V, V48M)

binding result (human CD20 [5]): binds
B8: BHH2-B (K12V) paired with a BKV1 light chain (antibody, human IgG1, V domains shown)
VH: QVQLVQSGAEVVKPGSSVKVSCKASGYAFSYSWMNWVRQAPGQGLEWMGRIFPGDGDTDYNGKFKGRVTITADKSTSTAYMELSSLRSEDTAVYYCARNVFDGYWLVYWGQGTLVTVSS
VL: DIVMTQTPLSLPVTPGEPASISCRSSKSLLHSNGITYLYWYLQKPGQSPQLLIYQMSNLVSGVPDRFSGSGSGTDFTLKISRVEAEDVGVYYCAQNLELPYTFGGGTKVEIKR

binding result (human CD20 [6]): binds
B9: BHL11-BKV1 (antibody, human IgG1, V domains shown)
VH: QVQLVESGGGLVKPGGSLRLSCAASGFTFSYSWMNWVRQAPGKGLEWVGRIFPGDGDTDYNGKFKGRVTITADKSTSTAYMELSSLRSEDTAVYYCARNVFDGYWLVYWGQGTLVTVSS
VL: DIVMTQTPLSLPVTPGEPASISCRSSKSLLHSNGITYLYWYLQKPGQSPQLLIYQMSNLVSGVPDRFSGSGSGTDFTLKISRVEAEDVGVYYCAQNLELPYTFGGGTKVEIKR
notes: also called B-HL11 (having the mutation E1Q)

binding result (human CD20 [2]): binds
B10: BHL16-BKV1 (antibody, human IgG1, V domains shown)
VH: EVQLVESGGGLVKPGGSLRVSCAASGFTFSYSWMNWVRQAPGKGLEWMGRIFPGDGDTDYNGKFKGRVTITADKSTSTAYMELSSLRSEDTAVYYCARNVFDGYWLVYWGQGTLVTVSS
VL: DIVMTQTPLSLPVTPGEPASISCRSSKSLLHSNGITYLYWYLQKPGQSPQLLIYQMSNLVSGVPDRFSGSGSGTDFTLKISRVEAEDVGVYYCAQNLELPYTFGGGTKVEIKR
notes: also called BHL16-BKV1 W1; B-HL16 (L20V, V48M)

binding result (human CD20 [3]): binds
B11: BHL8-BKV1 (antibody, human IgG1, V domains shown)
VH: EVQLVESGGGLVKPGGSLRLSCAASGFTFSYSWMNWVRQAPGKGLEWVGRIFPGDGDTDYNGKFKGRVTITADKSTSTAYMELSSLRSEDTAVYYCARNVFDGYWLVYWGQGTLVTVSS
VL: DIVMTQTPLSLPVTPGEPASISCRSSKSLLHSNGITYLYWYLQKPGQSPQLLIYQMSNLVSGVPDRFSGSGSGTDFTLKISRVEAEDVGVYYCAQNLELPYTFGGGTKVEIKR
notes: also called BHL8-BKV1 wt

binding result (human CD20 [2]): binds
B13: BHL14-BKV1 (antibody, human IgG1, V domains shown)
VH: EVQLVESGGGLKKPGGSLRLSCAASGFTFSYSWMNWVRQAPGKGLEWMGRIFPGDGDTDYNGKFKGRVTITADKSTSTAYMELSSLRSEDTAVYYCARNVFDGYWLVYWGQGTLVTVSS
VL: DIVMTQTPLSLPVTPGEPASISCRSSKSLLHSNGITYLYWYLQKPGQSPQLLIYQMSNLVSGVPDRFSGSGSGTDFTLKISRVEAEDVGVYYCAQNLELPYTFGGGTKVEIKR
notes: also called B-HL14 (V12K, V48M)

binding result (human CD20 [2]): binds
B14: BHL17-BKV1 (antibody, human IgG1, V domains shown)
VH: EVQLVESGGGLVKPGGSLRLSCAASGFTFSYSWMNWVRQAPGKGLEWMGRIFPGDGDTDYNGKFKGRVTITADKSTSTAYMELSSLRSEDTAVYYCARNVFDGYWLVYWGQGTLVTVSS
VL: DIVMTQTPLSLPVTPGEPASISCRSSKSLLHSNGITYLYWYLQKPGQSPQLLIYQMSNLVSGVPDRFSGSGSGTDFTLKISRVEAEDVGVYYCAQNLELPYTFGGGTKVEIKR
notes: also called BHL17-BKV1 W1; B-HL17 (V48M)
